Measurements published in the supplement of paper PMC10567573.

B1: KLHL12 (parent)
chain: REESLPNLLQYVRMPLLTPRYITD
B2: MIA2 (parent)
chain: DMVSNIELPTRIHEEVYFEPSSSK

Variants of: B1
Experiment: protein stability index of a GFP-peptide fusion (GPS, HEK-293T) (PSI 1-6); higher = more stable
Conditions: c terminus: a fixed tail appended
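Note: lentivirally expressed fusions sorted by FACS into six bins by GFP to DsRed ratio, PSI derived from sequencing read proportions per bin multiplied by bin number.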

Protein stability index: each site, then its substitutions
I22: A 2.76 | H 2.86 | Y 2.34 | S 2.72 | W 1.93 | R 3.84 | V 2.18 | D 3.27 | P 3.71 | E 3.22 | M 1.94 | T 3.39 | N 2.71 | K 3.71 | G 2.4 | Q 2.54 | C 2.55 | F 1.93 | L 2.4
D24: L 1.71 | Q 2.5 | S 2.01 | F 2.04 | C 1.81 | W 2.11 | G 2.28 | P 2.04 | R 2.75 | T 2.17 | V 1.57 | Y 2.22 | I 3.11 | N 2.35 | E 2.26 | H 2.06 | K 2.64 | M 1.6 | A 1.84
P19: W 2.41 | F 2.17 | T 2.46 | A 2.74 | S 2.14 | C 2.28 | D 2.9 | G 2.75 | V 2.22 | H 1.47 | Y 1.4 | R 2.39 | M 2.02 | Q 2.18 | L 2.48 | E 3.03 | K 2.41 | N 2.48 | I 2.12
T18: Y 1.95 | M 1.81 | H 2.52 | C 1.96 | R 2.67 | E 2.87 | F 2.46 | K 2.19 | S 2.27 | I 2.17 | P 2.29 | A 2.36 | D 2.38 | L 2.42 | W 1.55 | G 3.92 | N 1.7 | V 1.97 | Q 2.5
R20: I 2.68 | C 2.12 | M 1.97 | G 3.29 | H 2.56 | W 1.22 | P 2.21 | V 1.92 | A 2.19 | N 2.78 | S 2.72 | E 2.7 | L 2.55 | K 3.48 | D 3.03 | T 2.15 | F 1.95 | Y 1.67 | Q 2.54
L17: V 3.56 | D 3.43 | Q 2.86 | Y 2.98 | S 2.87 | P 2.54 | N 3.42 | H 2.83 | G 2.77 | K 3.51 | E 3.45 | W 2.33 | T 2.54 | R 3.48 | M 2.63 | F 2.16 | I 2.54
Y21: K 3.93 | E 3.17 | L 2.62 | D 3.69 | S 3.37 | N 3.25 | W 1.79 | F 2.22 | P 3.15 | R 3.24 | M 2.97 | A 3.59 | H 3.08 | I 2.84 | V 2.72 | G 3.4 | C 2.95 | Q 3.85 | T 3.26
T23: P 2.57 | H 2.58 | Q 2.65 | M 2.61 | E 2.81 | W 1.7 | A 2.9 | N 2.85 | F 1.62 | I 2.12 | C 2.03 | S 2.66 | R 3.83 | Y 2.09 | D 3.12 | K 3.35 | L 2.02 | G 2.48 | V 2.04

Variants of: B2
Experiment: as above
Conditions: c terminus: a fixed tail appended

Protein stability index: each site, then its substitutions
I6: Q 4.19 | F 4.08 | M 4.32 | R 3.84 | V 4.18 | S 4.07 | H 4.34 | K 4.68 | C 4.91 | N 4.77 | D 4.86 | T 4.48 | E 5.27 | P 4.4 | G 4.52 | Y 4.03 | A 4.51 | W 3.32 | L 4.16
E7: R 3.33 | H 3.98 | V 3.53 | P 3.34 | M 3.29 | L 3.16 | K 3.03 | F 3.59 | D 3.83 | I 2.88 | W 2.64 | A 3.65 | N 2.85 | C 3.32 | S 3.02 | G 3.58 | Q 2.9 | T 2.78 | Y 2.11
D1: R 4.25 | P 4.09 | T 3.63 | E 3.16 | S 3.5 | A 3.62 | V 1.98 | H 4.67 | N 4.15 | M 2.73 | I 2.36 | L 3.11 | Q 3.95 | K 3.93 | C 2.86 | G 3.65 | Y 3.42 | W 2.63 | F 2.87
N5: I 3.86 | C 4.04 | R 3.92 | H 4.3 | A 4.14 | K 4.43 | V 3.5 | L 3.19 | Q 4.33 | M 3.99 | T 4.47 | P 5.11 | W 4.38 | S 4.46 | D 4.56 | E 4.18 | Y 2.46 | G 3.84 | F 3.95
T10: G 3.83 | M 3.81 | H 4.47 | N 3.61 | D 4.74 | P 4 | F 3.86 | L 4.11 | I 3.94 | A 4.23 | K 3.4 | C 1.67 | E 4.01
S4: T 3.73 | N 4.03 | E 4.48 | C 3.44 | D 3.98 | Y 4.01 | L 3.12 | W 2.6 | A 3.97 | G 3.82 | Q 3.52 | H 4.29 | P 4.34 | R 3.97 | M 3.51 | K 4.07 | I 1.93 | V 3.33 | F 2.35
L8: G 4.74 | E 5.22 | A 4.46 | I 4.04 | T 4 | C 4.02 | Q 4.53 | F 4.47 | Y 3.52 | R 3.64 | W 4.22 | P 4.4 | S 4.5 | M 3.46 | K 3.83 | D 4.54 | H 4.56 | N 4.44 | V 4.13
V3: P 4.1 | T 3.04 | E 4.65 | C 3.97 | H 3.56 | F 3.73 | R 4.56 | M 4.09 | S 4.26 | I 4.26 | Q 4.02 | G 4.23 | W 3.15 | L 3.53 | N 3.86 | D 3.89 | A 3.79 | Y 3.87 | K 4.02
M2: D 5.43 | A 5.19 | F 3.28 | Y 3.72 | T 5.12 | V 3.64 | N 5.1 | C 4.99 | K 3.55 | E 5.23 | L 3.7 | R 4.18 | W 2.8 | S 5.02 | I 3.62 | G 4.78 | P 5.15 | H 4.48 | Q 5.01
P9: F 3.01 | H 3.5 | N 4.06 | A 3.46 | M 3.35 | C 3.53 | Q 4.08 | Y 3.41 | E 4.21 | I 3.3 | G 3.53 | L 3.65 | W 2.98 | T 3.69 | D 3.46 | S 3.31 | R 3.6 | V 2.94 | K 3.89
